Test results as given in the supplement of paper PMC7877785.
± gives the uncertainty stated by the source.

Experiment: self-splicing fitness, log relative to wild type (ln ratio); higher = more splicing; Tetrahymena group I intron in knt gene, E. coli kanamycin selection, DiMSum; sequences stand for … in CUCUCU…GGAGGGAAAAGUUAUCAGGCAUGCACCUGGUAGCUAGUCUUUAAACCAAUAGAUUGCAUCGGUUUAAAAGGCAAGACCGUCAAAUUGCGGGAAAGGGGUCAACAGCCGUUCAGUACCAAGUCUCAGGGGAAACUUUGAGAUGGCCUUGCAAAGGGUAUGGUAAUAAGCUGACGGACAUGGUCCUAACCACGCAGCCAAGUCCUAAGUCAACAGAUCUUCUGUUGAUAUGGAUGCAGUUCACAGACUAAAUGUCGGUCGGGGAAGAUGUAUUCUUCUCAUAAGAUAUAGUCGGACCUCUCCUUAAUGGGAGCUAGCGGAUGAAGUGAUGCAACACUGGAGCCGCUGGGAACUAAUUUGUAUGCGAAAGUAUAUUGAUUAGUUUUGGAGUACUCGUGGUCG
Outline: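 A randomised library covering all eight P1ex-region intron nucleotides was built with the intron in the knt kanamycin-resistance gene on pET-22b(+) and held in E. coli BL21(DE3). Cells were grown overnight at 37°C or 30°C on LB agar, with or without 25 μg/mL kanamycin, plus 100 μg/mL carbenicillin, 50 μM IPTG and 0.2% rhamnose, and pooled colonies were amplicon-sequenced on an Illumina HiSeq 2500. DiMSum fitness is the error-weighted combination of wild-type-normalised replicate fold changes, kanamycin versus none.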

| Sequence | self-splicing fitness (ln) (30 °C) | self-splicing fitness (ln) (37 °C) |
| --- | --- | --- |
| GUCAAGCAAUAUUACGAAUG | -4.11 ± 0.22 | -1.18 ± 0.1 |
| AGACAGCAAUAUUACGCCCG | -0.434 ± 0.17 | -0.555 ± 0.24 |
| GUUAAGCAAUAUUACGCGAG | -0.369 ± 0.1 | -0.341 ± 0.14 |
| AGCCAGCAAUAUUACGCGUC | -2.8 ± 0.13 | -1.23 ± 0.12 |
| UGAAAGCAAUAUUACGACUU | -0.765 ± 0.12 | 0.423 ± 0.15 |
| AAAUAGCAAUAUUACGUGUG | -2.05 ± 0.09 | -1.55 ± 0.086 |
| GUCCAGCAAUAUUACGGUCC | -3.66 ± 0.35 | -2.68 ± 0.29 |
| UAGAAGCAAUAUUACGGCCG | 0.101 ± 0.083 | -0.0885 ± 0.11 |
| UGCCAGCAAUAUUACGUGCA | -2.55 ± 0.1 | -1.53 ± 0.12 |
| CCAAAGCAAUAUUACGGGGG | -3.14 ± 0.18 | -1.5 ± 0.16 |
| CUACAGCAAUAUUACGGCGG | -1.34 ± 0.084 | -1.47 ± 0.094 |
| ACUAAGCAAUAUUACGCGAU | -2.98 ± 0.15 | -1.82 ± 0.2 |
| UCAGAGCAAUAUUACGGCGC | -1.6 ± 0.2 | -2.6 ± 0.45 |
| ACCUAGCAAUAUUACGGUGU | -2.97 ± 0.1 | -1.93 ± 0.12 |
| GCCGAGCAAUAUUACGCACG | -3.74 ± 0.35 | -1.49 ± 0.36 |
| UCUAAGCAAUAUUACGGGGG | -3.17 ± 0.22 | -0.678 ± 0.17 |
| CAUUAGCAAUAUUACGGCAG | -0.186 ± 0.078 | -0.0776 ± 0.11 |
| GGGAAGCAAUAUUACGAAGC | -2.84 ± 0.23 | -1.75 ± 0.34 |
| GCUUAGCAAUAUUACGAACU | -0.838 ± 0.08 | 0.0658 ± 0.1 |
| CUCAAGCAAUAUUACGUGAC | -2.46 ± 0.15 | -0.92 ± 0.12 |
| AGGAAGCAAUAUUACGCCAC | -2.13 ± 0.24 | -2.64 ± 0.41 |
| GACAAGCAAUAUUACGGCUG | -0.552 ± 0.082 | -0.635 ± 0.11 |
| GGUGAGCAAUAUUACGACGC | -0.546 ± 0.19 | -0.0795 ± 0.28 |
| ACCGAGCAAUAUUACGGUAC | -2.82 ± 0.3 | -2.46 ± 0.33 |
| AAAAAGCAAUAUUACGGCGC | -0.402 ± 0.093 | 0.559 ± 0.13 |

| Sequence | self-splicing fitness (ln) (30 °C) | self-splicing fitness (ln) (37 °C) |
| --- | --- | --- |
| CGUGAGCAAUAUUACGCUUG | -2.56 ± 0.11 | -2.07 ± 0.13 |
| UAGGAGCAAUAUUACGCGCA | -0.955 ± 0.1 | -0.414 ± 0.12 |
| CAGUAGCAAUAUUACGGUCU | -3.35 ± 0.15 | -1.89 ± 0.14 |
| GCAUAGCAAUAUUACGGACC | -0.439 ± 0.1 | -0.576 ± 0.093 |
| GCCAAGCAAUAUUACGAAAU | -3.24 ± 0.19 | -2.28 ± 0.18 |
| CUUUAGCAAUAUUACGCAGA | – | -2.09 ± 0.3 |
| UCCCAGCAAUAUUACGACCC | -2.89 ± 0.31 | -2.44 ± 0.35 |
| CUUCAGCAAUAUUACGGACA | -3.26 ± 0.35 | -2.3 ± 0.26 |
| CGGCAGCAAUAUUACGAAGU | -3.35 ± 0.28 | -0.302 ± 0.2 |
| UAAGAGCAAUAUUACGACAG | -3.17 ± 0.25 | -2.34 ± 0.23 |
| GCCCAGCAAUAUUACGCAAA | -2.41 ± 0.14 | -1.3 ± 0.11 |
| CUCUAGCAAUAUUACGUAUU | -2.14 ± 0.13 | -3.57 ± 0.25 |
| AACGAGCAAUAUUACGGGUU | -2.17 ± 0.18 | -2.05 ± 0.22 |
| CAUUAGCAAUAUUACGAUUG | -1.49 ± 0.077 | -0.759 ± 0.11 |
| UGGUAGCAAUAUUACGAUGG | -2.44 ± 0.15 | -1.1 ± 0.17 |
| GGUGAGCAAUAUUACGAUCC | – | -0.766 ± 0.35 |
| GCCAAGCAAUAUUACGGUAA | -0.713 ± 0.1 | 0.0284 ± 0.1 |
| UUUCAGCAAUAUUACGUCAA | -1.19 ± 0.1 | -0.056 ± 0.097 |
| UAAGAGCAAUAUUACGGCAA | -2.23 ± 0.18 | -2.03 ± 0.14 |
| CGCCAGCAAUAUUACGCUAU | -3.43 ± 0.15 | -3.01 ± 0.21 |
| CCCAAGCAAUAUUACGUCGG | -3.63 ± 0.12 | -2.51 ± 0.14 |
| GUUAAGCAAUAUUACGCGCA | -0.293 ± 0.12 | 0.115 ± 0.15 |
| GAGCAGCAAUAUUACGGAUG | -3.85 ± 0.25 | -1.73 ± 0.15 |
| GCCAAGCAAUAUUACGGUGA | -1.06 ± 0.06 | -0.493 ± 0.065 |
| CGAGAGCAAUAUUACGUCGG | -2.51 ± 0.15 | -0.79 ± 0.15 |

| Sequence | self-splicing fitness (ln) (30 °C) | self-splicing fitness (ln) (37 °C) |
| --- | --- | --- |
| CCUGAGCAAUAUUACGAUGC | -4.16 ± 0.28 | -2.75 ± 0.21 |
| UACCAGCAAUAUUACGCUCC | -1.12 ± 0.18 | -0.501 ± 0.2 |
| AUACAGCAAUAUUACGCAGA | -1.49 ± 0.13 | -1.51 ± 0.1 |
| GAUGAGCAAUAUUACGAGGU | -2.66 ± 0.32 | -1.99 ± 0.33 |
| UAGCAGCAAUAUUACGGAAG | -3.04 ± 0.16 | -1.14 ± 0.15 |
| AGACAGCAAUAUUACGCUAG | -4.3 ± 0.3 | -2.81 ± 0.22 |
| CCGAAGCAAUAUUACGUCGC | -3.18 ± 0.26 | -3.07 ± 0.34 |
| GAAGAGCAAUAUUACGAGAC | -3.95 ± 0.26 | -1.4 ± 0.25 |
| GGCUAGCAAUAUUACGUUCU | -0.249 ± 0.082 | -0.358 ± 0.1 |
| GGUCAGCAAUAUUACGUUCC | -0.328 ± 0.24 | -0.643 ± 0.28 |
| GCCCAGCAAUAUUACGGGCC | -3.22 ± 0.13 | -2.58 ± 0.26 |
| UCCUAGCAAUAUUACGUAAG | -3.31 ± 0.24 | -2.4 ± 0.23 |
| GAAGAGCAAUAUUACGUAGU | -2.69 ± 0.13 | -2.88 ± 0.2 |
| CAGUAGCAAUAUUACGAACU | -1.4 ± 0.22 | -1.05 ± 0.17 |
| GGGCAGCAAUAUUACGAUGC | -1.98 ± 0.2 | -1.11 ± 0.24 |
| UCCUAGCAAUAUUACGAGUU | -3.71 ± 0.3 | -1.24 ± 0.18 |
| CUGGAGCAAUAUUACGCGAG | -3.24 ± 0.23 | -2.47 ± 0.26 |
| CCCAAGCAAUAUUACGAACG | -3.72 ± 0.25 | -3.46 ± 0.2 |
| UCAUAGCAAUAUUACGUACG | -1.57 ± 0.12 | -0.499 ± 0.13 |
| UGCUAGCAAUAUUACGCUUC | -1.65 ± 0.17 | -0.347 ± 0.28 |
| CCCAAGCAAUAUUACGCGCC | – | -1.59 ± 0.34 |
| AUUCAGCAAUAUUACGACAC | -1.45 ± 0.14 | 0.224 ± 0.17 |
| UUAAAGCAAUAUUACGUCAC | -2.97 ± 0.16 | -1.76 ± 0.22 |
| CUUCAGCAAUAUUACGUCGG | -1.85 ± 0.15 | -1.79 ± 0.24 |
| UUGCAGCAAUAUUACGGGUC | -2.73 ± 0.21 | -1.7 ± 0.22 |
